Source: paper PMC8034648, “Oligomeric complexes formed by Redβ single strand annealing protein in its different DNA bound states”

Assays:
[1] = target: T1, Redβ single strand annealing protein (bacteriophage λ, UniProt P03698); assay: SEC-MALS; strands added sequentially, PBS; 358 kDa, n=11.3; EMSA: 10 uM Redβ, 50 uM nt DNA, 37 C, in PBS, or 20 mM Tris-HCl pH 7.5/10 mM NaCl/10 mM MgCl2, or 50 mM ammonium acetate pH 7.0; SEC-MALS: PBS, complexes formed; conditions: protein: recombinant; tags: N-terminal GSH left after thrombin removal of 6xHis; chain copies: 11; blunt
T1 sequence: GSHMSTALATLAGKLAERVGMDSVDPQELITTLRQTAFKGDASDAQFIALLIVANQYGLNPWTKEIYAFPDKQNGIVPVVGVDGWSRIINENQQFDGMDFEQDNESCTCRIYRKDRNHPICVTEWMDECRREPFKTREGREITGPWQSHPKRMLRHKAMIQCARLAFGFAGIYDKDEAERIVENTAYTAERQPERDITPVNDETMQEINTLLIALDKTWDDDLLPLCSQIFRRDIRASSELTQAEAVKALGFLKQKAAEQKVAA

[2] = target: T1, Redβ single strand annealing protein; assay: SEC-MALS; PBS; 653 kDa, n=21.1; EMSA: 10 uM Redβ, 50 uM nt DNA, 37 C, in PBS, or 20 mM Tris-HCl pH 7.5/10 mM NaCl/10 mM MgCl2, or 50 mM ammonium acetate pH 7.0; SEC-MALS: PBS, complexes formed; conditions: protein: recombinant; tags: N-terminal GSH left after thrombin removal of 6xHis; chain copies: 11
[3] = target: T1, Redβ single strand annealing protein; assay: SEC-MALS; strands added sequentially, PBS; 591 kDa, n=18.2; EMSA: 10 uM Redβ, 50 uM nt DNA, 37 C, in PBS, or 20 mM Tris-HCl pH 7.5/10 mM NaCl/10 mM MgCl2, or 50 mM ammonium acetate pH 7.0; SEC-MALS: PBS, complexes formed; conditions: protein: recombinant; tags: N-terminal GSH left after thrombin removal of 6xHis; chain copies: 11; blunt
[4] = target: T1, Redβ single strand annealing protein; assay: EMSA; strands added sequentially, either order; EMSA: 10 uM Redβ, 50 uM nt DNA, 37 C, in PBS, or 20 mM Tris-HCl pH 7.5/10 mM NaCl/10 mM MgCl2, or 50 mM ammonium acetate pH 7.0; SEC-MALS: PBS, complexes formed; conditions: protein: recombinant; tags: N-terminal GSH left after thrombin removal of 6xHis; chain copies: 11; label: 5'-Cy5 on strand 1, 5'-Cy3 on strand 2; 5' overhangs 1 nt (49 bp)
[5] = target: T1, Redβ single strand annealing protein; assay: native MS; strands added sequentially, 1 uM Redβ; 22 subunits, one copy of each strand; EMSA: 10 uM Redβ, 50 uM nt DNA, 37 C, in PBS, or 20 mM Tris-HCl pH 7.5/10 mM NaCl/10 mM MgCl2, or 50 mM ammonium acetate pH 7.0; SEC-MALS: PBS, complexes formed; conditions: protein: recombinant; tags: N-terminal GSH left after thrombin removal of 6xHis; chain copies: 11; 3' overhang 4 nt on strand 2

B1: dT38:dA38 (dsDNA)
DNA 1: TTTTTTTTTTTTTTTTTTTTTTTTTTTTTTTTTTTTTT
DNA 2: AAAAAAAAAAAAAAAAAAAAAAAAAAAAAAAAAAAAAA
**Q.** Does B1 bind [1]?
**A.** Result: binds

B2: 83- (ssDNA)
DNA: TTGCATATTTAAAACATGTTGAGCTACAGCACCAGATTCAGCAATTAAGCTCTAAGCCATCCGCAAAAATGACCTCTTATCAA
**Q.** Does B2 bind [2]?
**A.** Result: binds

B3: 83-:83+ (dsDNA)
DNA 1: B2 DNA
DNA 2: TTGATAAGAGGTCATTTTTGCGGATGGCTTAGAGCTTAATTGCTGAATCTGGTGCTGTAGCTCAACATGTTTTAAATATGCAA
**Q.** Does B3 bind [3]?
**A.** Result: binds

B4: Cy5 50mer:Cy3 50mer (annealed sequentially or pre-formed) (dsDNA)
DNA 1: CCATCCGCAAAAATCGAGCTATGCAGGGCGATTCTGCTCTAAGCCATCCG
DNA 2: GCGGATGGCTTAGAGCAGAATCGCCCTGCATAGCTCGATTTTTGCGGATG
**Q.** Does B4 bind [4]?
**A.** Result: binds

B5: 83-:87+ (dsDNA)
DNA 1: B2 DNA
DNA 2: TTGATAAGAGGTCATTTTTGCGGATGGCTTAGAGCTTAATTGCTGAATCTGGTGCTGTAGCTCAACATGTTTTAAATATGCAATGAC
**Q.** Does B5 bind [5]?
**A.** Result: binds
